From patent US20260365758 (published 2026) come the findings set out here.

One assay has as its target cynomolgus STEAP1 (cynomolgus monkey). The experiment in a line: KinExA, monovalent, live 293 cells. For orientation: Kinetic exclusion samples the free partner from a solution-phase mixture.
For assay [1], the target named is human STEAP1 (human). The experiment in a line: KinExA, monovalent, live 293 cells.
In assay [2] the target is human STEAP1 (human). The experiment in a line: FACS, LNCaP-X1.2 cells, bivalent. (In general: Flow cytometry measures light scatter and fluorescence of single cells or particles in a stream.)

Sequence of human STEAP1 (human) (chain, as listed by the source): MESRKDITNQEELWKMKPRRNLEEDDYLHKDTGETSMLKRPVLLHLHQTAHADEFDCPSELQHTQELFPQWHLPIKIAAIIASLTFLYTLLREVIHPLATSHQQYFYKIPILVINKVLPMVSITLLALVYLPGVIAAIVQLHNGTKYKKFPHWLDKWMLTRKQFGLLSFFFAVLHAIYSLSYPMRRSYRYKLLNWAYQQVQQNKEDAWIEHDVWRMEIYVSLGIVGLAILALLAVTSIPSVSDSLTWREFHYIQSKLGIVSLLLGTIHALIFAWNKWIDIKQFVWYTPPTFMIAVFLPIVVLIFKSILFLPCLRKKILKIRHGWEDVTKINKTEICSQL
Sequence of cynomolgus STEAP1 (cynomolgus monkey) (chain, as listed by the source): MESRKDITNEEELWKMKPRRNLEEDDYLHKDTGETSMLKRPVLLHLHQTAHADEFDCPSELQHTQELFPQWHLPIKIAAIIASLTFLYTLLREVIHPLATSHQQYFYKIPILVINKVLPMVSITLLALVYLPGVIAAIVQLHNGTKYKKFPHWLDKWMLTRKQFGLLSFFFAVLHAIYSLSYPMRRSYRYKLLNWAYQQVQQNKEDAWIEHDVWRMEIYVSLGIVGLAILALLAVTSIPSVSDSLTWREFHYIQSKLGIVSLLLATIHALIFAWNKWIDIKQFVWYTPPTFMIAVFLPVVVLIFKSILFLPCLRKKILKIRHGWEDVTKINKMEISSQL

B1: huAb44.v6.05-40G5c (STEAP1 arm) (antibody, V domains shown)
VH: EVQLVESGGGLVQPGGSLRLSCAASGFTFSDHYMAWVRQAPGKGLVWVSYIDYDGGSTSYGDSVKGRFTISRDNAKSTLYLQMNSLRAEDTAVYYCARRSGFYHVGYAMNAWGQGTTVTVSS
VL: DIVLTQTPLSLSVTPGQPASISCRSSQSLEYSDGYTYLEWYLQKPGQSPQLLIYGVSNRFSGVPDRFSGSGSGTDFTLKISRVEAEDVGVYYCFQATHDPLTFGGGTKVEIK
In the case of B1, the results for the Kd with cynomolgus STEAP1 and with human STEAP1 [1] were 14 nM and 29 nM, respectively.

B2: huAb44.v6.05 (antibody, V domains shown)
VH: B1 VH
VL: B1 VL
As for B2, the EC50 (usually the midpoint of the concentration-response curve) in the assay with human STEAP1 [2] is 1.9 nM.

B3: vandortuzumab (antibody, V domains shown)
VH: EVQLVESGGGLVQPGGSLRLSCAVSGYSITSDYAWNWVRQAPGKGLEWVGYISNSGSTSYNPSLKSRFTISRDTSKNTLYLQMNSLRAEDTAVYYCARERNYDYDDYYYAMDYWGQGTLVTVSS
VL: DIQMTQSPSSLSASVGDRVTITCKSSQSLLYRSNQKNYLAWYQQKPGKAPKLLIYWASTRESGVPSRFSGSGSGTDFTLTISSLQPEDFATYYCQQYYNYPRTFGQGTKVEIK
B3: the EC50 in the assay with human STEAP1 [2] came to 3.5 nM.
